Measured values taken from the supplement of paper PMC9170038.

System: MS2 coat protein
Assay: apparent KD of MS2 coat protein; higher = weaker reporter binding
Details: Eterna round: R107
Procedure, shortened: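 Illumina sequencing clusters served as templates for on-chip transcription of the designed RNA switches. SNAP-549-labelled MS2 coat protein was then titrated in twofold steps from 0.7 or 1.5 nM to 3 µM, allowing 0.8–1.5 h per step at first and 10–20 min per step later. The buffer held 100 mM Tris-HCl pH 7.5, 80 mM KCl and 4 mM MgCl2, without or with constant ligand. Apparent KD is the median per design of normalised cluster binding-curve fits.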

[1] = input ligand: theophylline 20 uM
[2] = input ligand: theophylline 2 mM
[3] = input ligand: tryptophan 2.4 mM

Sequence | apparent KD of MS2 coat protein (input ligand: arginine 13.2 mM) | apparent KD of MS2 coat protein (input ligand: none) | apparent KD of MS2 coat protein [1] | apparent KD of MS2 coat protein [2] | apparent KD of MS2 coat protein [3]
CGGCCCUCACGUGAGGAUCACCCACGUGAUACCAGCCUGGAAACAGGCCCUUGGCAGCACUAGGUCAUCAAAGAUGACCAAGCCG [TheoAX 27 #OpenEnded #AlternativeMS2] | 11.8 nM | 10.7 nM | 14.1 nM | 18.9 nM | 11.3 nM
CGGUCGGUCGGUCGGUGAGUAUGGGAUGAAGGAGCGUGGGAAGCUACAGGUAGGUCGCAUCCGGGACAUGAGGAUCACCCAUGUU [#19 Same State - Arginine A] | 19.8 nM | 27.7 nM | 43.3 nM | 41.7 nM | 25.1 nM
CGGUUUGUGAUGGAUACCAGCAGAGUGACUGUUUAUCCUGACAUGAGGAUCACCCAUGUGUGCCCUUGGCAGCUGUUGUGGGCUG [8.aA] | 66.3 nM | – | 111 nM | – | 65.7 nM
CGGUUUGUGAUGGAUACCAGCAGAGUGGCUGUUUAUCCUGACAUGAGGAUCACCCAUGUGUGCCCUUGGCAGCUGUUGUGGGCUG [8.aB] | 85.8 nM | 86.8 nM | 137 nM | 108 nM | 74.4 nM
CGUCGAAACUGAAGGAGCGAGAUAACAACAUUGGGUCUCAACAUGAGGAUCACCCAUGUAUCUCAGGUAGGUCGCGGUGUCACCG [Exclusion Arginine B GF19] | 176 nM | 202 nM | 267 nM | 429 nM | 217 nM
CGUCGAGACUGAAGGAGCGAGAUAACAACAUUGGGUCUCAACAUGAGGAUCACCCAUGUAUCUCAGGUAGGUCGCGGUGUCACCG [Exclusion Arginine B GF20] | 137 nM | 330 nM | 302 nM | 484 nM | 298 nM
CUACAUUUGUAGAAACCGGUCACCAUUAUUCGAGGACCGGUACGGCCGCCACUCGUAUCAUGUGAUACAUGAGGAUCACCCAUGU [Tryptophan A 9] | 27.3 nM | – | 33.7 nM | 45.5 nM | –
CUAUAAAUAGCGGCCGCCACUUACUCAUGAGGUAACAACAUGAGGAUCACCCAUGUUUGAGGAUCAAGGACCGGGCUAUUUAUAG [AstrosSSTryB#8] | 23.7 nM | – | 32.8 nM | 36.1 nM | –
CUAUAUGGAAACAUAUAGAAGCGAAAGCAACGAGGACCGGUACGGCCGCCACUCGAAGAGUGGUGGACAUGAGGAUCACCCAUGU [Design 3] | 40.8 nM | – | 71.6 nM | 99.6 nM | –
CUAUGCAGGUCGGCCGCCACUACACACAUGAGGAUCACCCAUGUAGUUACUGGGUGAAGUGGCAGUAGGACCGGGACCUGCAUAU [Brourdmod07] | 273 nM | – | 534 nM | 799 nM | –
CUCUGAGUGAGCAAUCACUCAGAGGCGGAUACCAGCGAGGUCCAUCGCCCUUGGCAGCCGAACAUGAGGAUCACCCAUGUCGGUA [#1 Same State - Theophylline A Attempt #22 (HarryS)] | 9.29 nM | – | 13 nM | – | 11 nM
CUGACAUGAGGAUCACCCAUGUACACUGAAGGAGCGUCGAGAAUGACAGGUAGGUCGCAGAAUAAUAAUGGUGAUGUUUAGGUAA [Exclusion Arginine A GF 2] | 24 nM | 20.8 nM | 34.1 nM | 26.3 nM | 23.4 nM
CUGGACAUGAGGAUCACCCAUGUAAAUCCUCGAGGACCGGUACGGCCGCCACUCGAACGAGUGGCGCGCGAGUGCGCACUCGCGC [aKa] | 43.6 nM | 41.4 nM | 66.9 nM | 49.3 nM | 28.3 nM
CUUCGCAUAGGAAAACUAUGUGAAGAAAAUCGAGGACCGGUACGGCCGCCACUCGUCCUCAACAUGAGGAUCACCCAUGUAAUAA [Mat - Exclusion - Trytophan A - D6] | 17.3 nM | – | 21.2 nM | 20.4 nM | –
GAAAGAUGAGGCGGCAGUACCGAUGUCGAUACCAGCAUGAACAAAUGCCCUUGGCAGCGACAUGAGGAUCACCCAUGUAUCUGCG [Reraatlaan] | 14.5 nM | – | 16.1 nM | – | 11.6 nM
GACCGAUUAUAGCACGAUUGUCUUGUGGAAGGAGCGCAGAGGGCUGCAGGUAGGUCGCCACAUGAGGAUCACCCAUGUCAGGAUA [Raanti] | 4.57 nM | 60 nM | 66.6 nM | 59.1 nM | 46.6 nM
GAGAGAGGAGUGCGGCGUGUUCCGCUCCGUCGAGGACCGGUACGGCCGCCACUCGACAUGAGGAUCACCCAUGUCCUCUCUCGCG [#1 Exclusion - Tryptophan A Attempt #4 (HarryS)] | 16.8 nM | – | 102 nM | 42.1 nM | –
GAGCUCGUGGACUGGCGUGCUCCGCUCCGUCGAGGACCGGUACGGCCGCCACUCGACAUGAGGAUCACCCAUGUGUGAGCUCGCU [#1 Exclusion - Tryptophan A Attempt #21 (HarryS)] | 61.1 nM | – | 185 nM | 390 nM | –
GAGCUGAUGUAGAGAAUAAAUAUAAGAGAUACCAGUACAGAAAUGUACCCUUGGCAGCUCAACUUUACAUGAGGAUCACCCAUGU [Ex Theophylline A 18] | 14.1 nM | – | 16.7 nM | – | 13.9 nM
GAGCUGAUGUAGAGCUAAUAUAAGAGAGAUACCAGUACAGAAAUGUACCCUUGGCAGCUCAACUUUACAUGAGGAUCACCCAUGU [Ex Theophylline A 21] | 12.2 nM | – | 13.4 nM | – | 16 nM
GAGUAGAGGACGGCCGCCACUGAACAUGAGGAUCACCCAUGUCGUGAUCCGUUGCCUGAAGAAGAUAGGACCGGGUCAUGUGCUC [Exclusion Tryptophan B GF 20] | 40.4 nM | 28.6 nM | 44.7 nM | 31.8 nM | 25.5 nM
